Assay results: the Human Domainome abundance scans (Beltran et al. 2025)
± gives the uncertainty stated by the source.

B1: POU domain, class 2, transcription factor 2, residues 200 to 269; numbered along this chain, P09086 (parent)
chain: LEELEQFARTFKQRRIKLGFTQGDVGLAMGKLYGNDFSQTTISRFEALNLSFKNMCKLKPLLEKWLNDAE

Variants of: B1
Test: abundance fitness (aPCA) (normalised: wild type 0, dead -1); higher = more abundant; growth selection in yeast, the domain comes from the species named
Conditions: Homo sapiens

Variant | abundance fitness
LEELEQFARTFKQRRIKLGFTQGDVGLAMGKLYGNDFSQTTKSRFEALNLSFKNMCKLKPLLEKWLNDAE [I42K] | -0.979 ± 0.15
LEELEQFARTFKQRRIKLGFTQGDVGLAMGKLYGNDFSQTTLSRFEALNLSFKNMCKLKPLLEKWLNDAE [I42L] | -0.073 ± 0.038
LEELEQFARTFKQRRIKLGFTQGDVGLAMGKLYGNDFSQTTMSRFEALNLSFKNMCKLKPLLEKWLNDAE [I42M] | -0.122 ± 0.059
LEELEQFARTFKQRRIKLGFTQGDVGLAMGKLYGNDFSQTTPSRFEALNLSFKNMCKLKPLLEKWLNDAE [I42P] | -0.857 ± 0.18
LEELEQFARTFKQRRIKLGFTQGDVGLAMGKLYGNDFSQTTQSRFEALNLSFKNMCKLKPLLEKWLNDAE [I42Q] | -0.559 ± 0.11
LEELEQFARTFKQRRIKLGFTQGDVGLAMGKLYGNDFSQTTRSRFEALNLSFKNMCKLKPLLEKWLNDAE [I42R] | -1.11 ± 0.14
LEELEQFARTFKQRRIKLGFTQGDVGLAMGKLYGNDFSQTTSSRFEALNLSFKNMCKLKPLLEKWLNDAE [I42S] | -0.685 ± 0.24
LEELEQFARTFKQRRIKLGFTQGDVGLAMGKLYGNDFSQTTTSRFEALNLSFKNMCKLKPLLEKWLNDAE [I42T] | -0.552 ± 0.077
LEELEQFARTFKQRRIKLGFTQGDVGLAMGKLYGNDFSQTTVSRFEALNLSFKNMCKLKPLLEKWLNDAE [I42V] | -0.033 ± 0.037
LEELEQFARTFKQRRIKLGFTQGDVGLAMGKLYGNDFSQTTWSRFEALNLSFKNMCKLKPLLEKWLNDAE [I42W] | -0.818 ± 0.16
LEELEQFARTFKQRRIKLGFTQGDVGLAMGKLYGNDFSQTTYSRFEALNLSFKNMCKLKPLLEKWLNDAE [I42Y] | -0.511 ± 0.21
LEELEQFARTFKQRRIKLGFTQGDVGLAMGKLYGNDFSQTTIARFEALNLSFKNMCKLKPLLEKWLNDAE [S43A] | 0.005 ± 0.046
LEELEQFARTFKQRRIKLGFTQGDVGLAMGKLYGNDFSQTTICRFEALNLSFKNMCKLKPLLEKWLNDAE [S43C] | -0.149 ± 0.083
LEELEQFARTFKQRRIKLGFTQGDVGLAMGKLYGNDFSQTTIDRFEALNLSFKNMCKLKPLLEKWLNDAE [S43D] | -0.049 ± 0.078
LEELEQFARTFKQRRIKLGFTQGDVGLAMGKLYGNDFSQTTIERFEALNLSFKNMCKLKPLLEKWLNDAE [S43E] | -0.018 ± 0.05
LEELEQFARTFKQRRIKLGFTQGDVGLAMGKLYGNDFSQTTIFRFEALNLSFKNMCKLKPLLEKWLNDAE [S43F] | -0.227 ± 0.079
LEELEQFARTFKQRRIKLGFTQGDVGLAMGKLYGNDFSQTTIGRFEALNLSFKNMCKLKPLLEKWLNDAE [S43G] | 0 ± 0.034
LEELEQFARTFKQRRIKLGFTQGDVGLAMGKLYGNDFSQTTIHRFEALNLSFKNMCKLKPLLEKWLNDAE [S43H] | -0.034 ± 0.034
LEELEQFARTFKQRRIKLGFTQGDVGLAMGKLYGNDFSQTTIIRFEALNLSFKNMCKLKPLLEKWLNDAE [S43I] | -0.024 ± 0.093
LEELEQFARTFKQRRIKLGFTQGDVGLAMGKLYGNDFSQTTIKRFEALNLSFKNMCKLKPLLEKWLNDAE [S43K] | 0.062 ± 0.085

Variant | abundance fitness
LEELEQFARTFKQRRIKLGFTQGDVGLAMGKLYGNDFSQTTILRFEALNLSFKNMCKLKPLLEKWLNDAE [S43L] | -0.07 ± 0.036
LEELEQFARTFKQRRIKLGFTQGDVGLAMGKLYGNDFSQTTINRFEALNLSFKNMCKLKPLLEKWLNDAE [S43N] | -0.046 ± 0.1
LEELEQFARTFKQRRIKLGFTQGDVGLAMGKLYGNDFSQTTIPRFEALNLSFKNMCKLKPLLEKWLNDAE [S43P] | -0.002 ± 0.046
LEELEQFARTFKQRRIKLGFTQGDVGLAMGKLYGNDFSQTTIQRFEALNLSFKNMCKLKPLLEKWLNDAE [S43Q] | 0.095 ± 0.11
LEELEQFARTFKQRRIKLGFTQGDVGLAMGKLYGNDFSQTTITRFEALNLSFKNMCKLKPLLEKWLNDAE [S43T] | -0.05 ± 0.046
LEELEQFARTFKQRRIKLGFTQGDVGLAMGKLYGNDFSQTTIVRFEALNLSFKNMCKLKPLLEKWLNDAE [S43V] | -0.098 ± 0.036
LEELEQFARTFKQRRIKLGFTQGDVGLAMGKLYGNDFSQTTIWRFEALNLSFKNMCKLKPLLEKWLNDAE [S43W] | -0.047 ± 0.045
LEELEQFARTFKQRRIKLGFTQGDVGLAMGKLYGNDFSQTTISAFEALNLSFKNMCKLKPLLEKWLNDAE [R44A] | 0.04 ± 0.052
LEELEQFARTFKQRRIKLGFTQGDVGLAMGKLYGNDFSQTTISCFEALNLSFKNMCKLKPLLEKWLNDAE [R44C] | -0.057 ± 0.069
LEELEQFARTFKQRRIKLGFTQGDVGLAMGKLYGNDFSQTTISDFEALNLSFKNMCKLKPLLEKWLNDAE [R44D] | -0.06 ± 0.095
LEELEQFARTFKQRRIKLGFTQGDVGLAMGKLYGNDFSQTTISEFEALNLSFKNMCKLKPLLEKWLNDAE [R44E] | 0.088 ± 0.055
LEELEQFARTFKQRRIKLGFTQGDVGLAMGKLYGNDFSQTTISFFEALNLSFKNMCKLKPLLEKWLNDAE [R44F] | -0.22 ± 0.067
LEELEQFARTFKQRRIKLGFTQGDVGLAMGKLYGNDFSQTTISGFEALNLSFKNMCKLKPLLEKWLNDAE [R44G] | 0.008 ± 0.029
LEELEQFARTFKQRRIKLGFTQGDVGLAMGKLYGNDFSQTTISHFEALNLSFKNMCKLKPLLEKWLNDAE [R44H] | -0.168 ± 0.095
LEELEQFARTFKQRRIKLGFTQGDVGLAMGKLYGNDFSQTTISIFEALNLSFKNMCKLKPLLEKWLNDAE [R44I] | -0.926 ± 0.36
LEELEQFARTFKQRRIKLGFTQGDVGLAMGKLYGNDFSQTTISKFEALNLSFKNMCKLKPLLEKWLNDAE [R44K] | 0.033 ± 0.066
LEELEQFARTFKQRRIKLGFTQGDVGLAMGKLYGNDFSQTTISLFEALNLSFKNMCKLKPLLEKWLNDAE [R44L] | -0.025 ± 0.037
LEELEQFARTFKQRRIKLGFTQGDVGLAMGKLYGNDFSQTTISMFEALNLSFKNMCKLKPLLEKWLNDAE [R44M] | -0.006 ± 0.049
LEELEQFARTFKQRRIKLGFTQGDVGLAMGKLYGNDFSQTTISNFEALNLSFKNMCKLKPLLEKWLNDAE [R44N] | -0.482 ± 0.32
